Results reported in US5622932A (Eli Lilly and Company, priority 1995, dated 1997).

How the values were obtained:
insulin receptor = molecular target: T1, insulin receptor (Homo sapiens, UniProt P06213); experiment: Insulin radioreceptor assay (displacement of [125I] ligand from human placental membranes); format: binding; conditions: relative to b,a (insulin) = 100; human placental membrane, 24 hours at 4° C., from EC50 values
T1 construct: 30-50 μg of human placental membrane protein was incubated; from tissue; host or cells: human placental membranes
Procedure: (§1) 67:194-197. Briefly, 30-50 μg of human placental membrane protein was incubated with approximately 10 femtomoles of [^125 I] ligand in a final volume of 500 μl of 100 mM HEPES, pH 7.8, 120 mM NaCl, 5 mM KCl, 1.2 mM MgSO4, 8 mM glucose and 0.25% BSA for 24 hours at 4° C. Membranes were collected on glass fiber filters pre-treated with 0.1% polyethyleneimine by using a cell harvester (Skatron, Lier, Norway). Binding data were analyzed by fitting displacement curves to a four parameter model employing Prefit/Allfit® software for the determination of EC50 values.

IGF-1 receptor = molecular target: T2, IGF-1 receptor (Homo sapiens, UniProt P08069); experiment: IGF-1 radioreceptor assay (displacement of [125I] ligand from human placental membranes); format: binding; conditions: relative to BCAD (IGF-1) = 100; human placental membrane, 24 hours at 4° C., from EC50 values
T2 construct: 30-50 μg of human placental membrane protein was incubated; from tissue; host or cells: human placental membranes
Procedure: as §1

| % INSULIN POTENCY (insulin receptor) | % IGF-1 POTENCY (IGF-1 receptor) | Substance |
| --- | --- | --- |
| 1.2% |  | IGF-1 [BCAD (IGF-1)] |
|  | 0.37% | insulin [b,a (insulin)] |
|  | < 0.1% | proinsulin [bca (proinsulin)] |
